In test [1] the target is T1, dimeric hDII4-hFc (human, UniProt Q9NR61 27-524, biotin in Example 3 (biotin-DII4-hFc), site not stated).
T1 construct: also called DII4-Fc; biotin-DII4-hFc; not shown: human Fc
The test is described as follows: competition ELISA; antibody titrated against 25 pM biotin-DII4-hFc; free biotin-DII4-hFc on Notch-hFc plate. The method, then:
The ability of the antibodies to block DII4 binding to Notch was evaluated with an ELISA-based immunoassay. Briefly, Notch-hFc recombinant protein was coated on a 96-well plate in PBS buffer overnight at 4° C. at […], and the nonspecific binding sites were blocked with BSA.
For orientation: In an ELISA, binding on a coated surface is turned into a signal by an enzyme label.

Test [2] concerns the target T1, dimeric hDII4-hFc. The test can be described thus: cell-based or functional assay.
Target sequence in this assay (Q9NR61 27-524 limits assumed): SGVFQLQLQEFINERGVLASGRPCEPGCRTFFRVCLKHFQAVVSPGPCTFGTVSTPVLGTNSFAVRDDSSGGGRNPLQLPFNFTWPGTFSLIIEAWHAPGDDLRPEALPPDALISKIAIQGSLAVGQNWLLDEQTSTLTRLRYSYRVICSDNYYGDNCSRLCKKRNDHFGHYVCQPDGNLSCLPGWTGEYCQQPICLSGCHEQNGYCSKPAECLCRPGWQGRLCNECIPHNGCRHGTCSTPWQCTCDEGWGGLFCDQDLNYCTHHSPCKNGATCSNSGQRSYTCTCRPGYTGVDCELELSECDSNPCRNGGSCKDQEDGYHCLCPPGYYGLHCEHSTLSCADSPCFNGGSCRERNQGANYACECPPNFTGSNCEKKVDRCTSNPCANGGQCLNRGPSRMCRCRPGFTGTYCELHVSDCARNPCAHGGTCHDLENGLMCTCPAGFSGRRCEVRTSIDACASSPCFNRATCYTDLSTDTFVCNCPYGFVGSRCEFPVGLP

B1: 318518-01A10-D8 (antibody, human IgG1)
heavy: not shown
VL: EIVMTQSPATLSLSPGERATLSCRASQSVSSYLAWYQQKPGQAPRLLIYDASNRATGIPARFSGSGSGTDFTLTISSLEPEDFAVYYCQHRSNWPPTFGGGTKVEIK
notes: HCVR 429 with hIgG1 constant region 950; also called REGN281; 318518-1A10-D8
In the case of B1, the IC50 – broadly, the concentration needed to halve the response being measured – in test [1] is 0.05 nM. The “HUVEC proliferation assay IC50” value in test [2] is 0.096 nM.

The values above are taken from patent publication US20080181899A1 (Regeneron, published 2008).
